Here are results for five molecules from patent publication US20020150536, “Nucleic acid ligands to integrins” (GILEAD SCIENCES, INC., published 2002).

Data set [1] deals with integrin alphaIIb beta3 on human platelets (Homo sapiens, UniProt P08514;P08514;P05106 P08514:32-887,P08514:891-1039,P05106:27-788). The data set can be described thus: flow; EDTA-sensitive binding, same for resting and thrombin-activated platelets; Mg2+, Ca2+, room temperature.
Method: Human platelets were chosen for this purpose because of their ease of isolation and their high level of expression of integrin αIIbβ₃. Because αIIbβ₃ undergoes a conformational change upon platelet activation, binding of the aptamer to both resting and thrombin-activated platelets was tested. […] Briefly, RNA was transcribed in the presence of a 5-fold molar excess of the initiator nucleotide guanosine-5′-O-(2-thiodiphosphate) (Calciochem), followed by conjugation of the gel-purified RNA to 5-iodoacetamidofluorescein (Pierce, Rockford, Ill.). Platelet-rich plasma was prepared from freshly-drawn citrated human blood by centrifugation at 1000 rpm for 15 minutes in a table top centrifuge. For activated platelets, cells were incubated for 15 minutes at room temperature at 2×10⁷/mL in calcium- and magnesium-free Dulbecco's PBS with 2.5 U/mL thrombin and 5 mM Gly-Pro-Arg-Pro (GPRP) to inhibit platelet aggregation. […] Resting cells were diluted similarly, without exposure to thrombin or GPRP. The activation state of resting and thrombin-treated cells was monitored by staining with fluorophore-conjugated antibodies to CD61 (β₃ integrin subunit), which binds to all platelets, and to CD62 (P-selectin), a marker of platelet activation. […] The incubation mixtures were applied directly to a Becton Dickinson FACSCalibur flow cytometer to determine the mean fluorescence intensity of the sample. […]
The target of data set [2] is T1, integrin alphaV beta3 (Homo sapiens, UniProt P06756;P06756;P05106 P06756:31-889,P06756:891-1048,P05106:27-788). Put plainly: inhibition; inhibition of biotinylated vitronectin binding (10 nM), room temperature. On the procedure: (§1) While the SELEX process identifies RNA sequences with high affinity for a particular target, the procedure used in this example was designed to bias for the recovery of ligand binding site inhibitors by the inclusion of a cRGD peptide competitor in the elution buffer. To test whether aptamer 17.16 could block the ligand binding site of αᵥβ₃ or αIIbβ₃, purified vitronectin and fibrinogen were biotinylated and incubated with one or both of the immobilized integrins in the presence or absence of varying concentrations of the aptamer or a non-binding control RNA. This was done as follows: purified integrin ligands, vitronectin and fibrinogen, were biotinylated according to (Smith et al. (1990) J. Biol. Chem. 265:12267-71). Briefly, proteins were dialyzed into 0.1 M NaHCO₃, 0.1 M NaCl. N-hydroxysuccinimido-LC-biotin (Pierce) was dissolved at 1 mg/mL in DMSO and added to the protein at a ratio of 0.1 mg biotin per 1 mg protein. The reaction was allowed to rotate at room temperature for 2 hours. Biotinylated proteins were dialyzed into phosphate-buffered saline and their concentrations determined by absorbance at 280 nm. […] Absorbance was read at 405 nm.

In a further data set the target is integrin alphaV beta5 (Homo sapiens, UniProt P06756;P06756;P18084 P06756:31-889,P06756:891-1048,P18084:24-799). Put plainly: no binding observed to immobilized alphaV beta5. Conditions: tags: Chemicon International. As to the method:
(§2) The affinity of individual RNAs and RNA pools for αᵥβ₃ was determined by titration of biotinylated RNA with a small quantity of immobilized integrin. Bound RNA was detected through the biotin moiety. Biotinylated RNA was prepared according to standard transcription protocols, but including a 5-fold molar excess of a 5′-biotin-modified GMP over GTP in the reaction mixture. Methods for synthesizing 5′-biotin-modified guanosine nucleotides are described in WO 98/30720 entitled “Bioconjugation of Oligonucleotides,” specifically incorporated herein by reference in its entirety. The modified nucleotide is incorporated at the 5′ end of the transcript in proportion to its representation in the guanosine pool. 96-well microtiter plates (Immulon 2, Dynatech Laboratories, Inc., Chantilly, Va.) were coated overnight at 4° C. with 100 μL purified αᵥβ₃ at a concentration of 0.25 μg/mL in 20 mM TrisHCl, pH 7.5, 150 mM NaCl, 1 mM MgCl₂, 2 mM CaCl₂, 0.1 mM MnCl₂. Coating concentrations were 0.8 μg/mL for αIIbβ₃ and 0.3 μg/mL for αᵥβ₅. Wells were blocked with 200 μL of a solution of 3% BSA in the same buffer (1 hour at room temperature) then rinsed 3 times with 200 μL binding buffer (50 mM TrisHCl, pH 7.5, 137 mM NaCl, 2.7 mM KCl, 1 mM MgCl₂, 2 mM CaCl₂, 0.1 mM MnCl₂, 0.1% BSA). […] Color development was monitored by absorbance at 405 nm.

Data set [3] has as its target T2, integrin alphaIIb beta3 (UniProt P08514;P08514;P05106 P08514:32-887,P08514:891-1039,P05106:27-788). The data set can be described thus: inhibition; inhibition of biotinylated fibrinogen binding (6 nM), room temperature. Conditions: tags: Enzyme Research Laboratories. On the procedure:
(§3) An estimate of the maximum absorbance value was determined for each ligand/integrin pair in the absence of competitor. The baseline absorbance value was determined by adding 5 mM EDTA to the incubation buffer.
as §1

The target in data set [4] is T1, integrin alphaV beta3. The description is as above. On the procedure: as §3, §1
The target in data set [5] is T1, integrin alphaV beta3. Put plainly: microtiter plate, streptavidin-AP; Mg2+, Ca2+, Mn2+, pH 7.5, 37 C. On the procedure: The affinity of individual RNAs and RNA pools for αᵥβ₃ was determined by titration of biotinylated RNA with a small quantity of immobilized integrin. Bound RNA was detected through the biotin moiety. Biotinylated RNA was prepared according to standard transcription protocols, but including a 5-fold molar excess of a 5′-biotin-modified GMP over GTP in the reaction mixture. Methods for synthesizing 5′-biotin-modified guanosine nucleotides are described in WO 98/30720 entitled “Bioconjugation of Oligonucleotides,” specifically incorporated herein by reference in its entirety. The modified nucleotide is incorporated at the 5′ end of the transcript in proportion to its representation in the guanosine pool. 96-well microtiter plates (Immulon 2, Dynatech Laboratories, Inc., Chantilly, Va.) were coated overnight at 4° C. with 100 μL purified αᵥβ₃ at a concentration of 0.25 μg/mL in 20 mM TrisHCl, pH 7.5, 150 mM NaCl, 1 mM MgCl₂, 2 mM CaCl₂, 0.1 mM MnCl₂. Coating concentrations were 0.8 μg/mL for αIIbβ₃ and 0.3 μg/mL for αᵥβ₅. Wells were blocked with 200 μL of a solution of 3% BSA in the same buffer (1 hour at room temperature) then rinsed 3 times with 200 μL binding buffer (50 mM TrisHCl, pH 7.5, 137 mM NaCl, 2.7 mM KCl, 1 mM MgCl₂, 2 mM CaCl₂, 0.1 mM MnCl₂, 0.1% BSA). Individual RNAs or RNA pools were denatured briefly at 93° C. in binding buffer without divalent cations or BSA, then serially diluted in the same buffer. 50 μL binding buffer containing 2×-concentrations of divalent cations and BSA were added to each well, followed by 50 μL RNA dilution. RNAs were allowed to incubate in the integrin-coated wells at 37° C. for 30-60 minutes. Unbound RNAs were removed by 3 rapid washes in binding buffer. To detect bound RNA, 100 μL of a 1:2500 dilution in binding buffer of streptavidin-alkaline phosphatase conjugate (Calbiochem) were incubated in each well for 30 minutes at room temperature, followed by three rapid washes, as above. 100 μL/well p-nitrophenyl phosphate (Sigma Chemical Co., St. Louis, Mo.) was added and incubated at room temperature for 30 minutes. Color development was monitored by absorbance at 405 nm.

The target in data set [6] is T2, integrin alphaIIb beta3. The data set can be described thus: affinity identical to alphaV beta3; platelet Kd of ~10 nM stated equivalent to purified alphaIIb beta3. Conditions: tags: Enzyme Research Laboratories. As to the method: as §2

Numbering of substitutions follows the chain as printed. Where two headings read alike, the source gives them in different places.

T1 sequence (P06756 31-889, chain 1 of 3): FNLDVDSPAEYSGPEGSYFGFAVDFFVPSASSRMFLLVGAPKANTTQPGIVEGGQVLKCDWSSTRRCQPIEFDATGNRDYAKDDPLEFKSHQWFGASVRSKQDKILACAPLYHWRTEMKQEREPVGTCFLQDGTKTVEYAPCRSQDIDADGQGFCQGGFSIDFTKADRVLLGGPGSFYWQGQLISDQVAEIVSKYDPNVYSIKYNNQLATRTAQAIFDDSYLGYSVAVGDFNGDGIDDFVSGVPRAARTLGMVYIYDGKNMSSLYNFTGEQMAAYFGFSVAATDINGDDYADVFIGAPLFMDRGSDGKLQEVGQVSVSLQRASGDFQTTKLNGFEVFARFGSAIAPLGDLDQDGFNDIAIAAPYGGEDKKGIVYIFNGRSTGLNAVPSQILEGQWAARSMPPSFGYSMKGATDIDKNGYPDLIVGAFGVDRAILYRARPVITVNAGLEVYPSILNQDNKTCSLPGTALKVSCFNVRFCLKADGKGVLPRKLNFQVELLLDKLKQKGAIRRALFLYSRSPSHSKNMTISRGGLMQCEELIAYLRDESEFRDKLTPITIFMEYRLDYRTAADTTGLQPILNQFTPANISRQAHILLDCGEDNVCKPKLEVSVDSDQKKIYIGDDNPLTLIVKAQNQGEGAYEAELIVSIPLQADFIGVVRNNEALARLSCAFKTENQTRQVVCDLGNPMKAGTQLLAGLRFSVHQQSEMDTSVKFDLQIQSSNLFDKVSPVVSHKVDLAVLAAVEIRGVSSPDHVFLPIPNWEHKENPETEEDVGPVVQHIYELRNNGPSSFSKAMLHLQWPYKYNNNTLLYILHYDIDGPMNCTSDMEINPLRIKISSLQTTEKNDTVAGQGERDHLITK
T1 sequence (P06756 891-1048, chain 2 of 3): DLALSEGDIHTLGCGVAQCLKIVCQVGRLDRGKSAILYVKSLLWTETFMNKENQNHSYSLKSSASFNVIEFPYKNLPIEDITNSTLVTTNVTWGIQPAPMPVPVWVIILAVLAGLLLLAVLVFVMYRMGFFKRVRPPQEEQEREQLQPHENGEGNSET
T1 sequence (P05106 27-788, chain 3 of 3): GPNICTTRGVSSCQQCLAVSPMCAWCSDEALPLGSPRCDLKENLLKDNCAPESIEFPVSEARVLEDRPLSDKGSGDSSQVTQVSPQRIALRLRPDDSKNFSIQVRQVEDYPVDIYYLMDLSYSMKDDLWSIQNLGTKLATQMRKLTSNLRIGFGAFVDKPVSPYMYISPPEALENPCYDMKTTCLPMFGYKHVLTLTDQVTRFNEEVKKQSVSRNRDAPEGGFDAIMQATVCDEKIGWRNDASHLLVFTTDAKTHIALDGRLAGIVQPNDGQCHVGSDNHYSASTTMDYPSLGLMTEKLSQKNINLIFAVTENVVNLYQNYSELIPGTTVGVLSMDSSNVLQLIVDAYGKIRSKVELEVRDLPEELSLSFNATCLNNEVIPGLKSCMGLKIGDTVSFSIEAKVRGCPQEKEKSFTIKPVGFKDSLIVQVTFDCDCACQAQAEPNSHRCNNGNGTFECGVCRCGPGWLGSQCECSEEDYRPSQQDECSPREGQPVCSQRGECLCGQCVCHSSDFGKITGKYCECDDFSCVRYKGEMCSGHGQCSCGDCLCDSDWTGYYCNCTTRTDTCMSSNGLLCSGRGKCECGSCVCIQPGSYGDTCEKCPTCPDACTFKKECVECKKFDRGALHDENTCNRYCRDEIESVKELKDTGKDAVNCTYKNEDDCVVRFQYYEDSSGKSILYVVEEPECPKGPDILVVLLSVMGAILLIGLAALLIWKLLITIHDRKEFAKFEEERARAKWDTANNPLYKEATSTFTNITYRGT
Chain of integrin alphaV beta5 (P06756 31-889, chain 1 of 3): as the sequence (P06756 31-889, chain 1 of 3) above
Chain of integrin alphaV beta5 (P06756 891-1048, chain 2 of 3): as the sequence (P06756 891-1048, chain 2 of 3) above
Chain of integrin alphaV beta5 (P18084 24-799, chain 3 of 3): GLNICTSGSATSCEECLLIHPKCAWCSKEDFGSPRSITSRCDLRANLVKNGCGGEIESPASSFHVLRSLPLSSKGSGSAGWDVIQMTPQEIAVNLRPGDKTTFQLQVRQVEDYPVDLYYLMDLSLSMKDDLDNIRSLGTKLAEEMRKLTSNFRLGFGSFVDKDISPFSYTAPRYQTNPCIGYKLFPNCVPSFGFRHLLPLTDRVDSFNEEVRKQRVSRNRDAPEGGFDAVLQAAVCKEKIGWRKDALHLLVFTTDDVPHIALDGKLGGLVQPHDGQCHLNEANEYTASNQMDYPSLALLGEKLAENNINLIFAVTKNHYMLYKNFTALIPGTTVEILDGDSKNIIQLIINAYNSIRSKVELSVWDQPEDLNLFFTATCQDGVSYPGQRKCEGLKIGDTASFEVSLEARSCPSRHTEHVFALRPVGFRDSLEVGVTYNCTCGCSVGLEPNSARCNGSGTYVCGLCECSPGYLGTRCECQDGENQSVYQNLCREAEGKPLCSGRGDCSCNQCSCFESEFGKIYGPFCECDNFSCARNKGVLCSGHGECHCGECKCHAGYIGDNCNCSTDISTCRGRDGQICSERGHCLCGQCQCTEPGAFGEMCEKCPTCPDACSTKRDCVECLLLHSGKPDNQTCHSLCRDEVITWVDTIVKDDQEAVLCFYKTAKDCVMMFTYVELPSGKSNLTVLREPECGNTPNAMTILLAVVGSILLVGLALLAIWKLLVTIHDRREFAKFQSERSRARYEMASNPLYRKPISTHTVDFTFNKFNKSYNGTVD

B1: 17.16 (ssRNA)
RNA: GGGAGACAAGAAUAAACGCUCAAUUCAACGCUGUGAAGGGCUUAUACGAGCGGAUUACCCUUCGACAGGAGGCUCACAACAGGC
modifications: 2'-F C and U
As a reminder, the Kd is a measure of binding affinity in units of concentration. Broadly, the IC50 is the concentration at which inhibition is half-maximal. Read a low IC50 as greater potency. Take B1: the figures for the Kd (in data set [1]; with integrin alphaV beta3 [5]; in the data set with integrin alphaIIb beta3 [6]) were approximately 10 nM, 8 nM and approximately 10 nM, respectively. In addition, the values for the IC50 in the data set with integrin alphaV beta3 [2], with integrin alphaIIb beta3 [3] and with integrin alphaV beta3 [4] were 4.7 nM, 6.5 nM and 9.5 nM, respectively. For the same molecule, the binding result with integrin alphaV beta5 was “no binding”.

B2: 17.7 (ssRNA)
RNA: B1 RNA with A27U
modifications: 2'-F C and U
With B2, binding in the data set with integrin alphaV beta3 [5] (label: 5'-biotin) was characterised by a dissociation constant (Kd) of 6 nM.

B3: 17.5 (ssRNA)
RNA: GGGAGACAAGAAUAAACGCUCAAUUCGACGCUGUGAAGGGCUUAUAUGAGCGGAUACACCCUUCGACAGGAGGCUCACAACAGGC
modifications: 2'-F C and U
Molecule B3 displayed a Kd with integrin alphaV beta3 [5] (label: 5'-biotin) of 5 nM.

B4: 15.2 (ssRNA)
RNA: GGGAGACAAGAAUAAACGCUCAAUUCAACGUUGUCAAAGGGCUUAUAUGAGCGGAUUACCCUUCGACAGGAGGCUCACAACAGGC
modifications: 2'-F C and U
In turn, B4 came in with a dissociation constant Kd with integrin alphaV beta3 [5] (label: 5'-biotin) of 6 nM.

B5: 15.14 (ssRNA)
RNA: B4 RNA with G30A, A36C
modifications: 2'-F C and U
Take B5: in the data set with integrin alphaV beta3 [5] (label: 5'-biotin), the Kd turned out to be 6 nM.
